experiment: soluble fraction after stress (log2 fold change); higher = more stays soluble; pooled small domains, quantitative proteomics; details: stress: 75 degC
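Also: 20 min heating vs room temperature control held 20 min.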

Going from “HMKVELSENEKIIYDLLSNQEVLLSEIKDKAELSNKAWDKSTKSLRKLGLVIVEKKDDNIYISKS” to “HMKVGEIIKAKREELKIPLVNFAKELDISQGYLSQIENGIKTNPNLDIILKIIHRLDIDLAMLL”, the “soluble fraction (log2)” value falls from -0.101 to -1.93.

First: HMKVIAEESYRILVDAIEKLPPQMKSIMQLALEGKSNPEIAETLNISGETVHSQKKIAYRKLRVYLKD
Second: HMKVIETKYNTYVVKSGDTLYSVAKKYGISVTELKEINDLSNNTLSIGQKLLVPATTIIIDE
The “soluble fraction (log2)” value of the first is lower: -2.36 for the first, -0.637 for the second.

Compared with “HMKVNMIIVMKPGARETDIQEVSNVLKSAGLGVHISKGTERTIIGVIGDKRLLNGIPLDLMHGVDKLVPIM”, “HMKVNQFEVEGNQRYSTEEIAKASGVSKGDNLFLVNKTETARKLLDELAYVRSVNIKRKLPDTLVITVAE” is higher in “soluble fraction (log2)” value: -1.24 for the first, -0.032 for the second.

“HMKVPDVQYMNKDSAIEALTANELKYTIVEAENENVAAGVVISQSVERDSQVAPGTSVELVVSTG” and “HMKVQEMTANSFLTQWEAGNVKTLDILPEGIIKGELNDGTKFQLYYSSAAGLIDDVKKNPEKFANTTVSEK” are within 0.2 log units of each other in “soluble fraction (log2)” value: 0.212 for the first, 0.0538 for the second.

First: HMKVQEVDYGTFLTMVDEGKVNQVDIENSKQITFNTKGDKNKVYITGQVNDPELVNRLYKAGVEFSQEIP
Second: HMKVSNWYFNGAPSATTPPTSQWTTEKDKKAHIGDTFTSLDKSPSPNAGKSWRYTPSYTWEEIV
The “soluble fraction (log2)” value of the first is lower: 0.273 for the first, 0.655 for the second.

Compared with “HMKVSRTAVKLHHANAVEVAKKLQPLFVVGDVQIEPVKDAGIILLKGPASTLADLRESIVQMDHTA”, “HMKVTRWEDTGMKPAEAQEWQHYDFKPQEAMNWRDAGFVPLVARTWSDKGFDASEAQAWRDSVRNS” is lower in “soluble fraction (log2)” value: -0.188 for the first, -0.618 for the second.

First: HMKVVEKHIVPQIQNPIRLQEYASSIFKTITTRSGIKKAIKKQLILLNRKPANTGDWIKEGQLLELLAEE
Second: HMKVYIKDISDLSDKLKSLLIENDIDDSNKLFEVEDQVLLEIKGLGSKTIDKIKDIVTEYLKKNN
The “soluble fraction (log2)” value of the first is lower: -2.53 for the first, -0.266 for the second.

Going from “HMKVYPIMEAIANNNIELVKLLLEYHADLNIKDSNGNTPLALAKETGAKEVEDLLLQWMKQHT” to “HMKWGDTPTVEVPNLIGMKKKDLQTQLVDLKLDISGDGEKVIKQSPEAGAKVKEGSKIRIYFG”, the “soluble fraction (log2)” value rises from -1.06 to -0.332.

Going from “HMKWYDSDKGFGFLSQEEGEDVYVRSSALPAGVEGLKAGQRVEFGIASGRRGPQALSL” to “HMKYKKYKLLKDLPTFKAGQLAYISKTGNLIAGTPENQKTTETGLIIMIYHETTLKKFPNILTEWFEEIE”, the “soluble fraction (log2)” value falls from -0.31 to -3.3.

Going from “HMKYNGDRPVFNDDVAWAKWMLENPAKITSHDKENLSSMLKKPEVVMLFEAEDLSVPDLRTLAKE” to “HMKYNYEAQQSDELSLVKGSRIHVLEKSSDGWWKGEIDNVVGWFPS”, the “soluble fraction (log2)” value falls from ≥ 1.04 to -0.239.

“HMKYRLLGENLQTIRKARGMKQQELADQIGINMQSLSKIERGLNYPTFETLEKIMNALGITPNELLSG” and “HMKYRPGDVVTLRVARMGEMGAFLDAGTGNTNDDILLHKMQQTEEIKAGQDVKVYLYLDPNRRLTASMKL” are within 0.2 log units of each other in “soluble fraction (log2)” value: -0.82 for the first, -0.835 for the second.

“HMKYSNDEVERDLYVRGVIYQIGDLVENKLDGTSGEVVRRGPNYVQYTDGENFYKAFLSALQEQK” and “HMKYSYAELTKLQEQIAQDRNAPLTVPNALGIGLDERNNVIEITVNIADEAAAKAYYLQKYGDRISLKTTD” are within 0.2 log units of each other in “soluble fraction (log2)” value: -0.369 for the first, -0.317 for the second.

Compared with “HMKYTEEIFNILSRGGFISANSVSSTVKRYYDALEEDFTEYYDYYKGIGFYLEAGNGYYLFTR”, “HMKYTVKSPLPGVIMSVLVKVGDTVKASDTVISLEAMKMENAIHAGRDGKVTSIDVNVGDSVLEGHTLVTI” is higher in “soluble fraction (log2)” value: -3.41 for the first, -0.594 for the second.

Compared with “HMLAAGTPLTVVTESSNLNIRQEPSTEAAVVGKAAKGEIVTLVEQTSGEWWKVSTKDGEEGYAYSRYL”, “HMLAAGTSLTVDTESSNLNIRQEPSTEGVILGKAAKGEVVTLVEQSSDEWWKIKTKDGEEGYAYARYLR” is lower in “soluble fraction (log2)” value: 0.678 for the first, 0.175 for the second.

Going from “HMLADRANMAPAALRQIMTAIDGGNVTPKQIESATGMAHATVARALRKMLDDGLIANDGKGRYTVLT” to “HMLADTNIHTIALKHRLANEVVEQVRPFLPETATIRAYDNMLILKSDRATLANVEQLIKKLDT”, the “soluble fraction (log2)” value rises from -0.212 to 0.0428.

“HMLALVREQIERNVSNPTDEDIRKIRHDVMEVITRAGADAATVDIAIEIDSQKNILRAIATGATEL” and “HMLAMHVVESVGGAEQFTKLQNFAKTQNADYQKMWNDTMNSGNVLAIKTMLSGIQSDMIAVQ” are within 0.2 log units of each other in “soluble fraction (log2)” value: -0.0966 for the first, -0.276 for the second.

“HMLAQDVIVKQDGGTILSKVLEIGTQEIAYKKWNSQDGPVYKIAKDQVLSVNYQNGEVDRFA” and “HMLAQISDEGAIGAVVARVLDAHPNEVARYHAGEEKVAKFLMGAAMRELRGKGDPAVVQRLLSEGLDARRV” are within 0.2 log units of each other in “soluble fraction (log2)” value: -0.00975 for the first, -0.00832 for the second.

Compared with “HMLARPTANELVKEMQRRAKEQRTELPPDAARDLLERSGQDQFLLGNEVDKLAALSGYTTITREMVAQAGT”, “HMLAVPADFAEKLQSLRSQLASDDLDASDAFGRLQPFIKALYPAQLEALRKAVDDFDFVEATRLIDQLPQ” is lower in “soluble fraction (log2)” value: 0.247 for the first, -0.376 for the second.

Going from “HMLAYQRTYEKILEDLRNDVYPVNSLLPPEPKLEEIYHVSRTTVRRAIAQLADEGYVKVKQGYGTVVLKN” to “HMLDEPPVSQTLTTYDREHMALYLRLLDSARDGADWREAVQILFGLDPTRDPLRSRHVHDTHLARARWM”, the “soluble fraction (log2)” value rises from -2.02 to -0.0384.

“HMLDFGQEDSEAVSEIILVLGRYWMDFSHKKYPEAEGSALRHKGISHIFTVLKPYLTSATAQLIEQRLQQ” and “HMLDIQKKGENIAYIEGAGDVIPESLKQIGYHVVTIAPKDINAETLSRFDAVVVGIRAYNTVEDL” are within 0.2 log units of each other in “soluble fraction (log2)” value: -0.0669 for the first, 0.0708 for the second.

First: HMLDKIRTYIDNSFTGVNETKKVKELKDELFENLKEKYNDQIQDGKTEQEAYNSVISGIGDLSELIESVK
Second: HMLDKKKHLEQGRKIIEDQLAKYKIQPSFDTLKKLSAYYGLNNKEQLYAQVGMGFLELENLDEILQ
The “soluble fraction (log2)” value of the first is higher: ≥ 1.04 for the first, 0.307 for the second.

Compared with “HMLDLPVRTINGRQYYYYEVRNRETVYGLSKRLGVTREEIVRYNPSMADGLKRGAILYFPVDEFSDRI”, “HMLDLSDFEVVRDLYLSEQIWNVGDLIIARSKKDDTYKAWEIIRKGTNYVTGIDESHKVEKIWLHDILI” is higher in “soluble fraction (log2)” value: -2.84 for the first, -1.15 for the second.

Going from “HMLDSPHDDLNRKIVQMLQNDGRLPYKDIAEVLSVSEGTVRNRVQRMRDAGMLNIVALIDPMAI” to “HMLDTPLTARELDVLYLMRQRMSAKEIAKQLGIATMTVNRHAANLYRKLGVNTRWDAVYRAEEVGILPP”, the “soluble fraction (log2)” value falls from -0.0197 to -1.45.

Going from “HMLDVNLIFSRPGFSLSAAFTLHAGGITVLRGDSGSGKTTLADLLSGAIAPQKGRILSDGDIWFDAASGIN” to “HMLDYITLSPQELGKLLSAGNGDAAMVYLYMKATGDVTLKQAETQLGMTNQNLAWAESLLKRLGLMD”, the “soluble fraction (log2)” value falls from 0.108 to -1.9.

“HMLDYKSALQELLQAQRRSRPRYEVISTEGPDHERVFEVAVWLDNEELGRGKGRSKREAEHQAAQAALTQL” and “HMLDYQLQVFKDTLEANRKHRGQKIVFIHGKGEGVLRRALIHALNYQYKKFTYQDASFREYGYGATQVTI” are within 0.2 log units of each other in “soluble fraction (log2)” value: -0.115 for the first, -0.312 for the second.

“HMLEEIDYPEEQLQLLFAWSRDHVQSTPPGLPVVDDHVWHILVRGYGATDQRTEAFALLASYAGFP” and “HMLEIDPPVDEISVSRKAFYEAAGYKVNPYTHIPPRYRKEFEEHSFVVMSWPRELPEETYRKFDRYLRDV” are within 0.2 log units of each other in “soluble fraction (log2)” value: 0.135 for the first, 0.0575 for the second.

First: HMLEIRGFTVLLSDRGIVGIIEEIIQNPGQDLLRILSPEKREILVPLHSDLITGINKKKKTITMNLPDGL
Second: HMLELTGEEEFVIRTLTRQGDLHINALVVETDIPINRMISLLFELEMKGVVKALVGGVYHLLG
The “soluble fraction (log2)” value of the first is higher: -1.87 for the first, -2.45 for the second.

For “HMLELTVSDKMARLMAWRNRRRVNLSDQELHRIAAAPKQSPESILKMLPGFLQDSVPEIWAELTGGRP”, the “soluble fraction (log2)” value was -1.24.

From the domain aggregation screens of Martell et al. (2025)
